The chains are these.
B1: arrestin-2-derived peptide CKVYTLTPFLANNRE (peptide)
peptide: CKVYTLTPFLANNRE
B2: His6-ERK2 (enzyme, rat, UniProt P63086 1-358, looked up)
chain: MAAAAAAGPEMVRGQVFDVGPRYTNLSYIGEGAYGMVCSAYDNLNKVRVAIKKISPFEHQTYCQRTLREIKILLRFRHENIIGINDIIRAPTIEQMKDVYIVQDLMETDLYKLLKTQHLSNDHICYFLYQILRGLKYIHSANVLHRDLKPSNLLLNTTCDLKICDFGLARVADPDHDHTGFLTEYVATRWYRAPEIMLNSKGYTKSIDIWSVGCILAEMLSNRPIFPGKHYLDQLNHILGILGSPSQEDLNCIINLKARNYLLSLPHKNKVPWNRLFPNADSKALDLLDKMLTFNPHKRIEVEQALAHPYLEQYYDPSDEPIAEAPFKFDMELDDLPKEKLKELIFEETARFQPGYRS

Test [1] deals with B2. The experiment in a line: peptide or protein array.
Test [2] addresses MBP-arrestin-2 (bovine, UniProt P17870 1-418). The experiment in a line: pull-down.

With B1, in test [1], the binding result is listed as “binds”.

With B2, in test [2], the binding result is “binds”.

These data come from publication PMC8977243 (Journal of molecular biology, 2022).
